Biological target: P74-26 gp87 (Head Decoration Protein gp87 from Thermus phage P74-26) (Thermus bacteriophage P74-26)
Test: SEC-MALS

For “P74-26 gp87 (Head Decoration Protein gp87 from Thermus phage P74-26) (natural protein)”, the stoichiometry N was 3.
